The nature of assay [1]: ω-transaminase enzyme activity assay, reverse direction (6-aminohexanoate to adipate semialdehyde). The settings on record: cell free extract; 10 mM 6-aminohexanoate, 10 mM pyruvate; 25° C., 24 h; against empty vector control (FIG. 17). In kind it is biochemical. As to the method:
(§1) A nucleotide sequence encoding a His-tag was added to the genes from Chromobacterium violaceum, Pseudomonas aeruginosa, Pseudomonas syringae, Rhodobacter sphaeroides, and Vibrio fluvialis encoding the ω-transaminases of SEQ ID NOs: 7, 8, 9, 10 and 12, respectively (see FIG. 9) such that N-terminal HIS tagged w-transaminases could be produced. Each of the resulting modified genes was cloned into a pET21a expression vector under control of the T7 promoter and each expression vector was transformed into a BL21[DE3] E. coli host. The resulting recombinant E. coli strains were cultivated at 37° C. in a 250 mL shake flask culture containing 50 mL LB media and antibiotic selection pressure, with shaking at 230 rpm. Each culture was induced overnight at 16° C. using 1 mM IPTG.
(§2) The pellet from each induced shake flask culture was harvested via centrifugation. Each pellet was resuspended and lysed via sonication. The cell debris was separated from the supernatant via centrifugation and the cell free extract was used immediately in enzyme activity assays.
Enzyme activity assays in the reverse direction (i.e., 6-aminohexanoate to adipate semialdehyde) were performed in a buffer composed of a final concentration of 50 mM HEPES buffer (pH=7.5), 10 mM 6-aminohexanoate, 10 mM pyruvate and 100 μM pyridoxyl 5′ phosphate. Each enzyme activity assay reaction was initiated by adding cell free extract of the ω-transaminase gene product or the empty vector control to the assay buffer containing the 6-aminohexanoate and incubated at 25° C. for 24 h, with shaking at 250 rpm. The formation of L-alanine from pyruvate was quantified via RP-HPLC.

Assay [2] in a line: ω-transaminase enzyme activity assay, forward direction (adipate semialdehyde to 6-aminohexanoate). It counts as biochemical. The settings on record: cell free extract; 10 mM adipate semialdehyde, 10 mM L-alanine; 25° C., 4 h; against empty vector control (FIG. 18). As to the method: as §1, §2
Enzyme activity in the forward direction (i.e., adipate semialdehyde to 6-aminohexanoate) was confirmed for the transaminases of SEQ ID NO 7, SEQ ID NO 8, SEQ ID NO 9, SEQ ID NO 10 and SEQ ID NO 12. Enzyme activity assays were performed in a buffer composed of a final concentration of 50 mM HEPES buffer (pH=7.5), 10 mM adipate semialdehyde, 10 mM L-alanine and 100 μM pyridoxyl 5′ phosphate. Each enzyme activity assay reaction was initiated by adding a cell free extract of the ω-transaminase gene product or the empty vector control to the assay buffer containing the adipate semialdehyde and incubated at 25° C. for 4 h, with shaking at 250 rpm. The formation of pyruvate was quantified via RP-HPLC.

As to “SEQ ID NO 10: Rhodobacter sphaeroides ω-transaminase (Genbank Accession No. ABA81135.1)”, the “ω-transaminase activity: acceptance of 6-aminohexanoate as substrate (formation of L-alanine from pyruvate, RP-HPLC)” value in assay [1] was “accepted 6-aminohexanote as substrate”. Further, the “ω-transaminase activity: acceptance of adipate semialdehyde as substrate (formation of pyruvate, RP-HPLC)” value in assay [2] is “accepted adipate semialdehyde as substrate”.

B1: SEQ ID NO 7: Chromobacterium violaceum ω-transaminase (Genbank Accession No. AAQ59697.1) (protein, listed as Chromobacterium violaceum)
chain: MQKQRTTSQWRELDAAHHLHPFTDTASLNQAGARVMTRGEGVYLWDSEGNKIIDGMAGLWCVNVGYGRKDFAEAARRQMEELPFYNTFFKTTHPAVVELSSLLAEVTPAGFDRVFYTNSGSESVDTMIRMVRRYWDVQGKPEKKTLIGRWNGYHGSTIGGASLGGMKYMHEQGDLPIPGMAHIEQPWWYKHGKDMTPDEFGVVAARWLEEKILEIGADKVAAFVGEPIQGAGGVIVPPATYWPEIERICRKYDVLLVADEVICGFGRTGEWFGHQHFGFQPDLFTAAKGLSSGYLPIGAVFVGKRVAEGLIAGGDFNHGFTYSGHPVCAAVAHANVAALRDEGIVQRVKDDIGPYMQKRWRETFSRFEHVDDVRGVGMVQAFTLVKNKAKRELFPDFGEIGTLCRDIFFRNNLIMRACGDHIVSAPPLVMTRAEVDEMLAVAERCLEEFEQTLKARGLA
For B1, the “ω-transaminase activity: acceptance of 6-aminohexanoate as substrate (formation of L-alanine from pyruvate, RP-HPLC)” value in assay [1] is on record as “accepted 6-aminohexanote as substrate”. Also, the “ω-transaminase activity: acceptance of adipate semialdehyde as substrate (formation of pyruvate, RP-HPLC)” value in assay [2] was “accepted adipate semialdehyde as substrate”.

B2: SEQ ID NO 9: Pseudomonas syringae ω-transaminase (Genbank Accession No. AAY39893.1) (protein, listed as Pseudomonas syringae)
chain: MSANNPQTLEWQALSSEHHLAPFSDYKQLKEKGPRIITRAEGVYLWDSEGNKILDGMSGLWCVAIGYGREELADAASKQMRELPYYNLFFQTAHPPVLELAKAISDIAPEGMNHVFFTGSGSEGNDTMLRMVRHYWALKGQPNKKTIISRVNGYHGSTVAGASLGGMTYMHEQGDLPIPGVVHIPQPYWFGEGGDMTPDEFGIWAAEQLEKKILELGVENVGAFIAEPIQGAGGVIVPPDSYWPKIKEILSRYDILFAADEVICGFGRTSEWFGSDFYGLRPDMMTIAKGLTSGYVPMGGLIVRDEIVAVLNEGGDFNHGFTYSGHPVAAAVALENIRILREEKIVERVRSETAPYLQKRLRELSDHPLVGEVRGVGLLGAIELVKDKTTRERYTDKGAGMICRTFCFDNGLIMRAVGDTMIIAPPLVISFAQIDELVEKARTCLDLTLAVLQG
In the case of B2, the “ω-transaminase activity: acceptance of 6-aminohexanoate as substrate (formation of L-alanine from pyruvate, RP-HPLC)” value in assay [1] was “accepted 6-aminohexanote as substrate”. Moreover, in assay [2], the “ω-transaminase activity: acceptance of adipate semialdehyde as substrate (formation of pyruvate, RP-HPLC)” value is “accepted adipate semialdehyde as substrate”.

B3: SEQ ID NO 8: Pseudomonas aeruginosa ω-transaminase (Genbank Accession No. AAG08191.1) (protein, listed as Pseudomonas aeruginosa)
chain: MNARLHATSPLGDADLVRADQAHYMHGYHVFDDHRVNGSLNIAAGDGAYIYDTAGNRYLDAVGGMWCTNIGLGREEMARTVAEQTRLLAYSNPFCDMANPRAIELCRKLAELAPGDLDHVFLTTGGSTAVDTAIRLMHYYQNCRGKRAKKHVITRINAYHGSTFLGMSLGGKSADRPAEFDFLDERIHHLACPYYYRAPEGLGEAEFLDGLVDEFERKILELGADRVGAFISEPVFGSGGVIVPPAGYHRRMWELCQRYDVLYISDEVVTSFGRLGHFFASQAVFGVQPDIILTAKGLTSGYQPLGACIFSRRIWEVIAEPDKGRCFSHGFTYSGHPVACAAALKNIEIIEREGLLAHADEVGRYFEERLQSLRDLPIVGDVRGMRFMACVEFVADKASKALFPESLNIGEWVHLRAQKRGLLVRPIVHLNVMSPPLILTREQVDTVVRVLRESIEETVEDLVRAGHR
As to B3, in assay [2], the “ω-transaminase activity: acceptance of adipate semialdehyde as substrate (formation of pyruvate, RP-HPLC)” value was “accepted adipate semialdehyde as substrate”.

The values above are taken from US9816117B2, “Methods, reagents and cells for biosynthesizing compounds” (INVISTA North America S.á r.l., priority 2014, dated 2017).
